Reference: article PMC3973953

B1: A. oryzae β-galactosidase (Aspergillus oryzae RIB40) (protein)
chain: ASIKHRLNGFTILEHPDPAKRDLLQDIVTWDDKSLFINGERIMLFSGEVHPFRLPVPSLWLDIFHKIRALGFNCVSFYIDWALLEGKPGDYRAEGIFALEPFFDAAKEAGIYLIARPGSYINAEVSGGGFPGWLQRVNGTLRSSDEPFLKATDNYIANAAAAVAKAQITNGGPVILYQPENEYSGGCCGVKYPDADYMQYVMDQARKADIVVPFISNDASPSGHNAPGSGTGAVDIYGHDSYPLGFDCANPSVWPEGKLPDNFRTLHLEQSPSTPYSLLEFQAGAFDPWGGPGFEKCYALVNHEFSRVFYRNDLSFGVSTFNLYMTFGGTNWGNLGHPGGYTSYDYGSPITETRNVTREKYSDIKLLANFVKASPSYLTATPRNLTTGVYTDTSDLAVTPLIGDSPGSFFVVRHTDYSSQESTSYKLKLPTSAGNLTIPQLEGTLSLNGRDSKIHVVDYNVSGTNIIYSTAEVFTWKKFDGNKVLVLYGGPKEHHELAIASKSNVTIIEGSDSGIVSTRKGSSVIIGWDVSSTRRIVQVGDLRVFLLDRNSAYNYWVPELPTEGTSPGFSTSKTTASSIIVKAGYLLRGAHLDGADLHLTADFNATTPIEVIGAPTGAKNLFVNGEKASHTVDKNGIWSSEVKYAAPEIKLPGLKDLDWKYLDTLPEIKSSYDDSAWVSADLPKTKNTHRPLDTPTSLYSSDYGFHTGYLIYRGHFVANGKESEFFIRTQGGSAFGSSVWLNETYLGSWTGADYAMDGNSTYKLSQLESGKNYVITVVIDNLGLDENWTVGEETMKNPRGILSYKLSGQDASAITWKLTGNLGGEDYQDKVRGPLNEGGLYAERQGFHQPQPPSESWESGSPLEGLSKPGIGFYTAQFDLDLPKGWDVPLYFNFGNNTQAARAQLYVNGYQYGKFTGNVGPQTSFPVPEGILNYRGTNYVALSLWALESDGAKLGSFELSYTTPVLTGYGNVESPEQPKYEQRKGAY
B2: A. nidulans rlacA (Aspergillus nidulans FGSC A4) (protein)
chain: VALTHKLNGFTITEHPDAEKRELLQKYVTWDDKSLFINGERIMIFGAEIHPWRLPVPSLWRDILQKVKALGFNCVSFYVDWALLEGKPGEYRAEGSFAWEPFFDAASDLGIYLIARPGPYINAEASGGGFPGWLQRLNGTIRSSDQSYLDATENYVSHIGGLIAKYQITNGGPVILYQPDNEYSGGCCGQEFPNPDYFQYVIDQARRAGIVVPTISNDAWPGGHNAPGTGKGEVDIYGHDNYPLGFDCANPDVWPEGNLPTDYRDLHLEISPSTPYALVEYQVGAFDPWGGPGFEQCAALTGYEFERVFHKNTFSFGVGILSLYMTFGGTNWGNLGHPGGYTSYDYGSPIKETREITREKYSELKLLGNFIKSSPGYLLATPGKLTNTTYTNTADLTVTPLLGNGTGSFFVLRHSDYSSQASTPYKLRLPTSAGQLTIPQLGGSLVLNGRDSKVHLVDYDVAGTKILYSTAEVFTWKKFHDGKVLVLYGGPGEHHELAVSSKAKVKVVEGLGSGISSKQIRGAVVVAWDVEPARRIVQIGDLKIFLLDRNSAYNYWVPQLGTETSIPYATEKAVAASVIVKAGYLVRTAYVKGRDLHLTADFNATTPVEVIGAPKTAENLFINGKKAHHTVDKNGIWSTEVGYSPPKIVLPVLEDLKWKSIDTLPEIQPSYDDSPWPDANLPTKNTIYPLRTPTSLYASDYGFHTGYLLFRGHFTANGRESNFSIQTQGGQAFGSSVWLSGTYLGSWTGDNDYQDYNATYTLPSLKAGKEYVFTVVVDNMGLNENWIVGQDEMKKPRGILNYELSGHEASDITWKLTGNFGGEDYVDKVRGPLNEGGLYAERHGYHQPYPPTKSKDWKSSTPLTGLSKPGISFYTASFDLDIKSGWDVPIYFEFGNSTTPAPAYRVQLYVNGWQYGKYVNNIGPQTRFPVPEGILNYKGTNWVAVTLWALEGSGAKLDSFKLVHGIPVRTALDVEGVELPRYQSRKGVY

Substrate: O=[N+]([O-])c1ccc(O[C@@H]2O[C@H](CO)[C@H](O)[C@H](O)[C@H]2O)cc1
Assay: purified protein
Conditions: McIlvaine buffer at optimal pH, 37 °C

Protein | Km | kcat | kcat/Km
B1 | 3020 ± 610 µM | 46.4 ± 1.2 s⁻¹ | 14600 ± 600 M⁻¹ s⁻¹
B2 | 1850 ± 210 µM | 63.4 ± 0.9 s⁻¹ | 34100 ± 1500 M⁻¹ s⁻¹
